Laboratory results from PMC1182371.

Target: KLF15-ZF-GST (human) (UniProt Q9UIH9)
Assay: DNase I footprinting
Details: EMSA: 4 mM HEPES, 5 mM EGTA, 100 mM KCl, 0.25 mM ZnCl2, 0.02% NP40, 0.1 M DTT, 4% glycerol, 90-120 min on ice, pH not stated, footprinting: same buffer

Chain of KLF15-ZF-GST (human) (Q9UIH9 294-416): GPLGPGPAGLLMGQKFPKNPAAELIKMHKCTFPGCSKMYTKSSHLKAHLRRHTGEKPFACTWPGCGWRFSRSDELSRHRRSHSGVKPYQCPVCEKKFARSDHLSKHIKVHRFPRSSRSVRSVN

Question: How did the binding turn out when “CGCCGGCGGCGCGAACCCGGGGATGCTTCTGAGGCCGGAGCTCAGCCACACGGGGCTCCGGCTGGACGACTCGTGGCTCCAACTCCCCCCCCAGGCCCTTATGAAGTGACCTCCCCTCCCTAAGCTCCCGGCTGAATCAGCACCTCGGAGATTGGGGGCGTTATTAATCATATTAATCCTCACTGCTGCAACGAGGGGCTTAATTGGCTTCCAGGTGGGGCCAAGGTGACTCCAGGTAGAAGGCTGTGGTCGGGGAGAAGGCGGGGCGTGCTGGGGACCCTGGGAAAGAGCAGAGGCCT (double strand) [bovine Rho -225 to +70]” was run?
Answer: The binding was “binds”.

Question: “GAAGTGACCTCCCCTCCCTAAGCTCCCGGCTGAATCAGCACCTCGGAGATTGGGGGCGTTATTAATCATATTAATCCTCACTGCTGCAACGAGGGGCTTAATTGGCTTCCAGGTGGGGCCAAGGTGACTCCAGGTAGAAGGCTGTGGTCGGGGAGAAGGCGGGGCGTGCTGGGGACCCTGGGAAAGAGCAGAGGCCTGCCCCCAACTCCCCTGTCCCCCTCTGGCATCTCAGCTGATGGCCCTGGCCTGGCATTGGGACCCCTAGCTCTAGGCCCACTTCCCTCT (double strand) [bovine Rho -315 to -31]” was tested. Which binding did it give?
Answer: Its binding is “binds”.
